Patent publication US6297019, “Recombinant polynucleotides encoding CYP7 promoter-binding factors” (Tularik Inc.)

Molecular target: T1, CPF (clone 113) (Homo sapiens)
T1 chain: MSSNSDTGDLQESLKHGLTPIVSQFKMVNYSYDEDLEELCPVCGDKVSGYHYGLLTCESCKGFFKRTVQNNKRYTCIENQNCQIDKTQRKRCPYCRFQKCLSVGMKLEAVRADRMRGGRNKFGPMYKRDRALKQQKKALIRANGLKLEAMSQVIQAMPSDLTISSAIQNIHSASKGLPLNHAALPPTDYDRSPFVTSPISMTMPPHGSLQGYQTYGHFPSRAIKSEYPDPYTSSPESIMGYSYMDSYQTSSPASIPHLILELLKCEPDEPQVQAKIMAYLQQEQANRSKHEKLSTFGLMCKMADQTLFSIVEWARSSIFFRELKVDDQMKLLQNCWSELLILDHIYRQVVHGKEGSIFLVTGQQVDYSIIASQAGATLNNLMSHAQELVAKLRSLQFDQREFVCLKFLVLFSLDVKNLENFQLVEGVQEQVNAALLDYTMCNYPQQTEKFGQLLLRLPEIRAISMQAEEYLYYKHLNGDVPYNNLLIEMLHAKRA
Test: EMSA; same DNA sequence as endogenous protein; exact probe not stated; complex disrupted by anti-CPF antibody
Conditions: tags: TNT in vitro transcription/translation; label: 32P
Text: Characterization of CPF. Clone #113 encodes a full length polypeptyde of 495 amino acids, with an in-frame stop codon 30 nucleotides upstream of the first ATG. We named the protein as CPF for CYP7 Promoter-binding Factor. […] The closest homologs of CPF are the mouse version of the family, LRH-1 (SEQ ID NOS:7, 8)and a human variant, hFTF (SEQ ID NOS:9, 10). To confirm the cloned CPF is the factor responsible for the CYP7 promoter binding activity, in vitro translated CPF was used side-by-side with the HepG2 nuclear extracts in gel shift experiments. We found in vitro translated CPF recognized the same DNA sequence as the endogenous protein does and the gel shift patterns between these two appear to be identical. Antibodies raised against a peptide containing the Ftz-F1 box were used in gel shift experiments. We found the DNA-protein complex formed either with HepG2 nuclear extracts or with in vitro translated CPF was disrupted by the specific antibody but not by preimmune serum. Furthermore, the antibody recognized a hepatic-specific cellular protein that comigrates with the in vitro translated CPF. The endogenous gene product recognized by the Ftz-F1-specific antibody is apparently hepatic specific since there is no corresponding protein in 293 cells.

B1: CYP7 promoter wild-type oligo (dsDNA)
DNA 1: TCTGATACCTGTGGACTTAGTTCAAGGCCAGTTA
DNA 2: TAACTGGCCTTGAACTAAGTCCACAGGTATCAGA
binding result: binds
